± gives the uncertainty stated by the source.
Experiment: self-splicing fitness, log relative to wild type (ln ratio); higher = more splicing; Tetrahymena group I intron in knt gene, E. coli kanamycin selection, DiMSum; sequences stand for … in CUCUCU…GGAGGGAAAAGUUAUCAGGCAUGCACCUGGUAGCUAGUCUUUAAACCAAUAGAUUGCAUCGGUUUAAAAGGCAAGACCGUCAAAUUGCGGGAAAGGGGUCAACAGCCGUUCAGUACCAAGUCUCAGGGGAAACUUUGAGAUGGCCUUGCAAAGGGUAUGGUAAUAAGCUGACGGACAUGGUCCUAACCACGCAGCCAAGUCCUAAGUCAACAGAUCUUCUGUUGAUAUGGAUGCAGUUCACAGACUAAAUGUCGGUCGGGGAAGAUGUAUUCUUCUCAUAAGAUAUAGUCGGACCUCUCCUUAAUGGGAGCUAGCGGAUGAAGUGAUGCAACACUGGAGCCGCUGGGAACUAAUUUGUAUGCGAAAGUAUAUUGAUUAGUUUUGGAGUACUCGUGGUCG
Summary of the method: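 The eight P1ex-region nucleotides of an intron in the knt kanamycin-resistance gene on pET-22b(+) were all randomised and the library put into E. coli BL21(DE3). Six replicate transformations were grown overnight at 37°C or 30°C on LB agar with or without 25 μg/mL kanamycin, together with 100 μg/mL carbenicillin, 50 μM IPTG and 0.2% rhamnose. Colonies were pooled and amplicon-sequenced on an Illumina HiSeq 2500. Fitness from DiMSum is the error-weighted combination of wild-type-normalised replicate fold changes, kanamycin over none.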

| Sequence | self-splicing fitness (ln) (30 °C) | self-splicing fitness (ln) (37 °C) |
| --- | --- | --- |
| GGCGAGCAAUAUUACGGAAU | -2.91 ± 0.19 | -1.87 ± 0.21 |
| GGCGAGCAAUAUUACGGCGA | -0.138 ± 0.078 | -0.0802 ± 0.092 |
| GGCGAGCAAUAUUACGGCUA | -0.343 ± 0.13 | 0.287 ± 0.14 |
| GGCGAGCAAUAUUACGGCUC | -1.83 ± 0.11 | -0.815 ± 0.21 |
| GGCGAGCAAUAUUACGGGUC | -1.2 ± 0.26 | -1.81 ± 0.35 |
| GGCGAGCAAUAUUACGGGUU | -2.52 ± 0.15 | -1.32 ± 0.13 |
| GGCGAGCAAUAUUACGUCAU | -2.45 ± 0.14 | -1.76 ± 0.11 |
| GGCGAGCAAUAUUACGUCCU | -2.41 ± 0.1 | -1.28 ± 0.09 |
| GGCGAGCAAUAUUACGUCGC | -2.72 ± 0.23 | – |
| GGCGAGCAAUAUUACGUGAC | -1.24 ± 0.18 | -1.65 ± 0.29 |
| GGCGAGCAAUAUUACGUGAG | -3.25 ± 0.18 | -2.57 ± 0.2 |
| GGCGAGCAAUAUUACGUGUG | -1.13 ± 0.1 | -0.745 ± 0.14 |
| GGCGAGCAAUAUUACGUUAG | -1.94 ± 0.15 | -2.49 ± 0.4 |
| GGCGAGCAAUAUUACGUUCA | -0.77 ± 0.1 | 0.0965 ± 0.13 |
| GGCUAGCAAUAUUACGAGAG | -2.09 ± 0.16 | -3.24 ± 0.32 |
| GGCUAGCAAUAUUACGAGGG | -2.39 ± 0.21 | -2.27 ± 0.42 |
| GGCUAGCAAUAUUACGAGUG | -0.589 ± 0.084 | 0.347 ± 0.12 |
| GGCUAGCAAUAUUACGCAGG | -3.5 ± 0.28 | -1.81 ± 0.19 |
| GGCUAGCAAUAUUACGCGAG | -4.46 ± 0.39 | -2.74 ± 0.28 |
| GGCUAGCAAUAUUACGCGAU | -1.74 ± 0.19 | -0.776 ± 0.2 |
| GGCUAGCAAUAUUACGCGUA | -0.142 ± 0.14 | 0.00477 ± 0.15 |
| GGCUAGCAAUAUUACGGAAA | -2.79 ± 0.41 | -1.92 ± 0.29 |
| GGCUAGCAAUAUUACGGCGA | -0.177 ± 0.13 | 0.0471 ± 0.14 |
| GGCUAGCAAUAUUACGGCGG | -1.32 ± 0.13 | -0.684 ± 0.19 |
| GGCUAGCAAUAUUACGGGAA | -0.617 ± 0.14 | -1.06 ± 0.2 |

| Sequence | self-splicing fitness (ln) (30 °C) | self-splicing fitness (ln) (37 °C) |
| --- | --- | --- |
| GGCUAGCAAUAUUACGGGGG | -3.9 ± 0.37 | -2.09 ± 0.21 |
| GGCUAGCAAUAUUACGGUGU | -0.416 ± 0.062 | 0.178 ± 0.069 |
| GGCUAGCAAUAUUACGUAAA | -0.62 ± 0.084 | -0.198 ± 0.1 |
| GGCUAGCAAUAUUACGUACC | -0.292 ± 0.21 | 0.368 ± 0.23 |
| GGCUAGCAAUAUUACGUAGA | -0.208 ± 0.079 | -0.236 ± 0.1 |
| GGCUAGCAAUAUUACGUAUU | -0.862 ± 0.1 | -0.777 ± 0.12 |
| GGCUAGCAAUAUUACGUUCA | -0.464 ± 0.094 | 0.156 ± 0.11 |
| GGCUAGCAAUAUUACGUUGC | -1.94 ± 0.17 | -1.38 ± 0.2 |
| GGCUAGCAAUAUUACGUUGU | -1.59 ± 0.083 | -0.434 ± 0.11 |
| GGGAAGCAAUAUUACGACAG | -3.01 ± 0.31 | -3 ± 0.37 |
| GGGAAGCAAUAUUACGACCU | -2.31 ± 0.27 | – |
| GGGAAGCAAUAUUACGAGGU | -2.81 ± 0.31 | – |
| GGGAAGCAAUAUUACGAUAC | -0.528 ± 0.14 | -0.986 ± 0.16 |
| GGGAAGCAAUAUUACGCAAG | -2.81 ± 0.16 | -1.14 ± 0.14 |
| GGGAAGCAAUAUUACGCAGG | -3.02 ± 0.22 | -2.32 ± 0.28 |
| GGGAAGCAAUAUUACGCAUC | -2.36 ± 0.39 | -1.77 ± 0.32 |
| GGGAAGCAAUAUUACGCCGU | -0.357 ± 0.36 | -0.232 ± 0.31 |
| GGGAAGCAAUAUUACGCGAU | -3.63 ± 0.27 | -0.798 ± 0.17 |
| GGGAAGCAAUAUUACGCGGU | -3.44 ± 0.31 | -1.4 ± 0.21 |
| GGGAAGCAAUAUUACGCGUC | -3.64 ± 0.3 | -2.86 ± 0.47 |
| GGGAAGCAAUAUUACGCUGA | -2.63 ± 0.33 | -1.54 ± 0.25 |
| GGGAAGCAAUAUUACGGGAU | – | -0.0224 ± 0.27 |
| GGGAAGCAAUAUUACGGGUG | -2.68 ± 0.13 | -2.12 ± 0.18 |
| GGGAAGCAAUAUUACGGUUC | -2.44 ± 0.18 | -1.03 ± 0.22 |
| GGGAAGCAAUAUUACGGUUG | -4.02 ± 0.33 | -2.74 ± 0.22 |

| Sequence | self-splicing fitness (ln) (30 °C) | self-splicing fitness (ln) (37 °C) |
| --- | --- | --- |
| GGGAAGCAAUAUUACGUCAG | -2.92 ± 0.33 | -2.52 ± 0.33 |
| GGGAAGCAAUAUUACGUCAU | -1.42 ± 0.11 | -0.7 ± 0.13 |
| GGGAAGCAAUAUUACGUCCA | 0.145 ± 0.14 | 0.69 ± 0.16 |
| GGGAAGCAAUAUUACGUCGC | -1.83 ± 0.16 | -0.302 ± 0.17 |
| GGGAAGCAAUAUUACGUGCU | -1.69 ± 0.12 | -0.273 ± 0.11 |
| GGGAAGCAAUAUUACGUUCG | -0.436 ± 0.11 | 0.00472 ± 0.17 |
| GGGAAGCAAUAUUACGUUUU | -2.68 ± 0.23 | -1.62 ± 0.25 |
| GGGCAGCAAUAUUACGAAGG | -3.32 ± 0.27 | -2.45 ± 0.35 |
| GGGCAGCAAUAUUACGACGU | -0.265 ± 0.1 | 0.553 ± 0.12 |
| GGGCAGCAAUAUUACGACUG | -2.84 ± 0.2 | -0.716 ± 0.27 |
| GGGCAGCAAUAUUACGAGAC | -3.12 ± 0.26 | -1.74 ± 0.19 |
| GGGCAGCAAUAUUACGAGGG | -3.93 ± 0.34 | -2.39 ± 0.24 |
| GGGCAGCAAUAUUACGAUAC | -1.1 ± 0.11 | 0.201 ± 0.12 |
| GGGCAGCAAUAUUACGAUUC | -0.524 ± 0.17 | 0.155 ± 0.15 |
| GGGCAGCAAUAUUACGCCGG | -1.51 ± 0.11 | 0.118 ± 0.14 |
| GGGCAGCAAUAUUACGCCGU | -2.84 ± 0.21 | -1.01 ± 0.15 |
| GGGCAGCAAUAUUACGCGCU | -2.33 ± 0.19 | -1.44 ± 0.35 |
| GGGCAGCAAUAUUACGGAUG | -3.41 ± 0.26 | -2.81 ± 0.34 |
| GGGCAGCAAUAUUACGGGGU | – | -2.84 ± 0.34 |
| GGGCAGCAAUAUUACGGGUC | -2.9 ± 0.25 | -2.02 ± 0.23 |
| GGGCAGCAAUAUUACGUCAA | 0.3 ± 0.08 | 0.285 ± 0.088 |
| GGGCAGCAAUAUUACGUCUC | -2.15 ± 0.23 | -1.41 ± 0.15 |
| GGGCAGCAAUAUUACGUCUG | -1.11 ± 0.22 | -1.04 ± 0.16 |
| GGGCAGCAAUAUUACGUGAA | -0.864 ± 0.079 | -0.507 ± 0.083 |
| GGGCAGCAAUAUUACGUGUC | -3.82 ± 0.17 | -2.53 ± 0.2 |

| Sequence | self-splicing fitness (ln) (30 °C) | self-splicing fitness (ln) (37 °C) |
| --- | --- | --- |
| GGGGAGCAAUAUUACGAUGU | -1.64 ± 0.25 | -1.55 ± 0.35 |
| GGGGAGCAAUAUUACGCAAU | – | -1.66 ± 0.48 |
| GGGGAGCAAUAUUACGCCAC | -3.28 ± 0.27 | -3.39 ± 0.39 |
| GGGGAGCAAUAUUACGCGCA | -2.35 ± 0.22 | -1.32 ± 0.25 |
| GGGGAGCAAUAUUACGGCUA | -0.686 ± 0.18 | -0.291 ± 0.17 |
| GGGGAGCAAUAUUACGGGAA | – | -1.38 ± 0.49 |
| GGGGAGCAAUAUUACGGGUA | -2.64 ± 0.26 | -2.25 ± 0.34 |
| GGGGAGCAAUAUUACGGUAA | -2.05 ± 0.28 | -2.82 ± 0.3 |
| GGGGAGCAAUAUUACGGUCA | – | -0.676 ± 0.18 |
| GGGGAGCAAUAUUACGUAAC | -2.06 ± 0.46 | -0.204 ± 0.39 |
| GGGGAGCAAUAUUACGUAGA | -2.43 ± 0.31 | -1.7 ± 0.4 |
| GGGGAGCAAUAUUACGUCAU | – | -2.07 ± 0.39 |
| GGGGAGCAAUAUUACGUUAG | -3.73 ± 0.43 | -0.485 ± 0.33 |
| GGGUAGCAAUAUUACGAGGC | -3.89 ± 0.47 | -2.19 ± 0.25 |
| GGGUAGCAAUAUUACGCUGA | -2.05 ± 0.15 | 0.00831 ± 0.17 |
| GGGUAGCAAUAUUACGGAAU | -0.368 ± 0.12 | -0.661 ± 0.19 |
| GGGUAGCAAUAUUACGGCCG | -0.902 ± 0.086 | -0.295 ± 0.15 |
| GGGUAGCAAUAUUACGGCCU | -3.57 ± 0.38 | -2.14 ± 0.46 |
| GGGUAGCAAUAUUACGGGAU | -3.17 ± 0.22 | -2.04 ± 0.23 |
| GGGUAGCAAUAUUACGGUUC | -0.821 ± 0.095 | 0.258 ± 0.13 |
| GGGUAGCAAUAUUACGUCAG | – | -0.355 ± 0.32 |
| GGGUAGCAAUAUUACGUCGC | -1.04 ± 0.23 | 0.272 ± 0.21 |
| GGGUAGCAAUAUUACGUCUA | -0.297 ± 0.15 | 0.226 ± 0.16 |

— the supplement of paper PMC7877785
